A word on the Kd: it is the free concentration of one partner at which half of the binding sites on the other are occupied at equilibrium, for simple one-to-one binding.

The text below walks through data of PMC4081072, “Structure and semi-sequence-specific RNA binding of Nrd1”.

Series [1] has as its target T1, Nrd1 307-491 WT (Saccharomyces cerevisiae, UniProt P53617 307-491).
T1 sequence: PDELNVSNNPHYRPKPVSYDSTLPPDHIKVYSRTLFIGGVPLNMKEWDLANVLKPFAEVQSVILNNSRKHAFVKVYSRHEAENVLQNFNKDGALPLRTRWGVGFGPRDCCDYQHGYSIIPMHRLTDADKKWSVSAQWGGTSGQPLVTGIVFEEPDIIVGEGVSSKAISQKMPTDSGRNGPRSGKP
Description: fluorescence anisotropy; FA: 10 nM RNA, 50 mM sodium phosphate pH 8, 150 mM NaCl, 10 mM beta-mercaptoethanol, 20 C (protein stock in 300 mM NaCl); NMR: same buffer with 300 mM NaCl, 20. As to conditions: protein: recombinant, tags: C-terminal His6.

The target in series [2] is T2, Nrd1 307-491 K435D (Saccharomyces cerevisiae, UniProt P53617 307-491, K435D).
T2 sequence: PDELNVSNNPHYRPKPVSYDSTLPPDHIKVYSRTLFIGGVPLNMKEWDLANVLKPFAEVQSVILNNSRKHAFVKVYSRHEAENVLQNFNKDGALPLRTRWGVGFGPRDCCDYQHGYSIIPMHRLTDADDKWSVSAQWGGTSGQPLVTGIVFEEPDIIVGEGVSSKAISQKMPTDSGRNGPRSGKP
Described as above. As to conditions: protein: recombinant; tags: C-terminal His6; label: 5' fluorescein or TAMRA (FA); unlabeled (NMR).

Series [3] concerns the target T3, Nrd1 307-491 F378A (Saccharomyces cerevisiae, UniProt P53617 307-491, F378A).
T3 sequence: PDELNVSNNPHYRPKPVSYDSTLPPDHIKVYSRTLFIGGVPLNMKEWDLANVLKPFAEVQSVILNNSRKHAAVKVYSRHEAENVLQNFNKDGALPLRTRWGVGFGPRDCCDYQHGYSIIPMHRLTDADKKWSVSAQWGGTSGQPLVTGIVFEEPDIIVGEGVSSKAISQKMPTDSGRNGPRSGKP
Described as above. As to conditions: protein: recombinant; tags: C-terminal His6; label: 5' fluorescein or TAMRA (FA); unlabeled (NMR).

Series [4] has as its target T4, Nrd1 307-491 F342A (Saccharomyces cerevisiae, UniProt P53617 307-491, F342A).
T4 sequence: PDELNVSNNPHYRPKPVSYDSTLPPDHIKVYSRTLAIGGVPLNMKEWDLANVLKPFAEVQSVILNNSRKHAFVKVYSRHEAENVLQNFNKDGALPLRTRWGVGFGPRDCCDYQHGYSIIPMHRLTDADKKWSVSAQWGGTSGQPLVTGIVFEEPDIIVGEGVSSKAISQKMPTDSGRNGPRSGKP
The series is described as above. Conditions: protein: recombinant; tags: C-terminal His6; label: 5' fluorescein or TAMRA (FA); unlabeled (NMR).

For series [5], the target named is T5, Nrd1 307-491 D417A (Saccharomyces cerevisiae, UniProt P53617 307-491, D417A).
T5 sequence: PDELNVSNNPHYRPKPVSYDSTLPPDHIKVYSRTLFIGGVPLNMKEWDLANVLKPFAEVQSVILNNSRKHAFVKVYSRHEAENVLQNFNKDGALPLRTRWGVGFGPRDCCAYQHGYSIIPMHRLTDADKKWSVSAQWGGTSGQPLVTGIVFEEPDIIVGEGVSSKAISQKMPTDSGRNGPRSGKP
The series is described as above. Conditions: protein: recombinant; tags: C-terminal His6; label: 5' fluorescein or TAMRA (FA); unlabeled (NMR).

The target in series [6] is T6, Nrd1 307-491 T431R (Saccharomyces cerevisiae, UniProt P53617 307-491, T431R).
T6 sequence: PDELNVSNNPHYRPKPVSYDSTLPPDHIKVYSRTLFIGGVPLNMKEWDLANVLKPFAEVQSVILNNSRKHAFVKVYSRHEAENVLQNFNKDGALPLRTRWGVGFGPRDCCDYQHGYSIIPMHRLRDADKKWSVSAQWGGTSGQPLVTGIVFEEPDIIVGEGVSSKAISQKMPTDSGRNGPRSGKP
The description is as above. As to conditions: protein: recombinant; tags: C-terminal His6; label: 5' fluorescein or TAMRA (FA); unlabeled (NMR).

In series [7] the target is T7, Nrd1 307-491 G409A (Saccharomyces cerevisiae, UniProt P53617 307-491, G409A).
T7 sequence: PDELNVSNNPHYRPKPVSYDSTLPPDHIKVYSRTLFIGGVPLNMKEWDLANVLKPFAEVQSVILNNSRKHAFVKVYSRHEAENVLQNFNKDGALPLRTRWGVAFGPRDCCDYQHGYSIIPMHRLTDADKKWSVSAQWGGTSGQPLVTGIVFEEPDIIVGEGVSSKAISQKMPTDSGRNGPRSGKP
The series is described as above. Conditions: protein: recombinant; tags: C-terminal His6; label: 5' fluorescein or TAMRA (FA); unlabeled (NMR).

For series [8], the target named is T8, Nrd1 307-491 H376A (Saccharomyces cerevisiae, UniProt P53617 307-491, H376A).
T8 sequence: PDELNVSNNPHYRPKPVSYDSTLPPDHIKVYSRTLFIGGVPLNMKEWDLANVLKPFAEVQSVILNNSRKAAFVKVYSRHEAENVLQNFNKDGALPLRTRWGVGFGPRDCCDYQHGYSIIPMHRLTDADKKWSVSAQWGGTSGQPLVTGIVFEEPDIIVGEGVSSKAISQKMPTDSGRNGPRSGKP
The series is described as above. Conditions: protein: recombinant; tags: C-terminal His6; label: 5' fluorescein or TAMRA (FA); unlabeled (NMR).

For series [9], the target named is T9, Nrd1 307-491 R429D (Saccharomyces cerevisiae, UniProt P53617 307-491, R429D).
T9 sequence: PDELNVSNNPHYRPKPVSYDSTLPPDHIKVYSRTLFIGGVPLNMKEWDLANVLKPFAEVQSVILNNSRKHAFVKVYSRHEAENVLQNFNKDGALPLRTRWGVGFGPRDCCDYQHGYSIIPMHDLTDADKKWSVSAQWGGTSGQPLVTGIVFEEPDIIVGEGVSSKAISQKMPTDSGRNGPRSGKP
The description is as above. As to conditions: protein: recombinant; tags: C-terminal His6; label: 5' fluorescein or TAMRA (FA); unlabeled (NMR).

The target of series [10] is T1, Nrd1 307-491 WT. Description: fluorescence anisotropy; prolonged incubation between aliquots; FA: 10 nM RNA, 50 mM sodium phosphate pH 8, 150 mM NaCl, 10 mM beta-mercaptoethanol, 20 C (protein stock in 300 mM NaCl); NMR: same buffer with 300 mM NaCl, 20. Conditions: protein: recombinant; tags: C-terminal His6; label: 5' fluorescein or TAMRA (FA); unlabeled (NMR); may form quadruplex when free. A general note: In fluorescence polarisation assays a small probe gives low polarisation when free and higher when bound to something large.

On to CCCCUGAAUUAAGCCCCCCCCCCCCC (ssRNA) [win78polyC], for which the Kd in [1] (label: 5' fluorescein or TAMRA) was 7.2 ± 0.5 µM. AUAUAUA (ssRNA): in series [1] (label: 5' fluorescein or TAMRA), the dissociation constant Kd came out at 11.3 ± 0.5 µM. Same read-out and setting: with CACACAC (ssRNA) the figure was 108 ± 4 µM. Regarding GUAAUGAAUUAAGUCUUGAUAUAUAA (ssRNA) [win78wt], the Kd in series [1] (label: 5' fluorescein or TAMRA) was found to be 1.5 ± 0.1 µM. On the same count and under the same terms, with AGCGUGAAUUAAGUCUUGCACACACA (ssRNA) [win78dNrd1dAUrichCA] the figure was 5.4 ± 0.2 µM. On the same count and under the same terms, the figure for AUUAUUA (ssRNA) is 14.8 ± 0.4 µM.

Turning to AGCGUGAAUUAAGAGCGUAUAUAUAA (ssRNA) [win78dNrd1dNab3], the Kd in [1] (label: 5' fluorescein or TAMRA) was determined as 7.9 ± 0.3 µM. Take GUUGUUG (ssRNA): the Kd in series [1] (label: 5' fluorescein or TAMRA) stood at 13 ± 0.7 µM.

In the case of AGCGUGAAUUAAGUCUUGAUAUAUAA (ssRNA) [win78dNrd1], in series [1] (label: 5' fluorescein or TAMRA), the Kd is 2.5 ± 0.2 µM. Still for that read-out and setting: with GCGGGCG (ssRNA) the figure was 13.2 ± 0.5 µM; with UUUUUUU (ssRNA) [U7], 69.8 ± 3.2 µM. On to GCGGGGC (ssRNA), for which the dissociation constant Kd in series [2] amounted to 50.5 ± 10.8 µM; in series [3], 73.4 ± 10.7 µM; in series [1] (label: 5' fluorescein or TAMRA (FA), unlabeled (NMR)), 9.8 ± 0.3 µM; in series [4], 29.5 ± 4 µM; in series [5], 31.7 ± 6 µM; in series [6] it was 48 ± 2.9 µM. Also, the dissociation constant Kd in series [7] turned out to be 30.3 ± 3.9 µM; in series [8], 37.5 ± 3.7 µM; in series [9] it was 60.1 ± 3.5 µM. Regarding UGGUGGU (ssRNA), the Kd in series [1] (label: 5' fluorescein or TAMRA) was determined as 6.8 ± 0.6 µM. Consider GGGGGGG (ssRNA) [G7], for which the dissociation constant Kd in series [10] came to 5.7 ± 1.2 µM. Take AAAAAAA (ssRNA) [A7]: in series [1] (label: 5' fluorescein or TAMRA), the Kd worked out at 32.1 ± 0.9 µM.

Turning to UGGA (ssRNA), in series [1] (label: 5' fluorescein or TAMRA), the Kd amounted to 94.1 ± 3.9 µM. On the same count and under the same terms, the figure for UCUUG (ssRNA) is 41.1 ± 2.7 µM. In the case of CAGCGUC (ssRNA), the Kd in series [1] (label: 5' fluorescein or TAMRA) stood at 37.7 ± 1.1 µM.
